# Test results as given in patent US20240024477A1.
# Molecular target: HLA-E bound RL9 presented on cells with their own HLA-E (RL9 pulsed autologous B cells (human; HIV-1) (UniProt P13747)
# Assay: cell-based or functional assay
substance,measurement,value
"irrelevant TCR specific for HLAA*0201-NY-ESO-1157-165 (…) (IG4), transduced into CD8 T cells","reduction of % p24+ cells, HIV-1 NL4.3-infected primary CD4+ T cells, E:T 5:1",23.5%
